The data set in a line: soluble on expression in E. coli; label from the status in PepcDB or PDB records.
On to “TTIVSVRRNGHVVIAGDGQATLGNTVMKGNVKKVRRLYNDKVIAGFAGGTADAFTLFELFERKLEMHQGHLVKAAVELAKDWRTDRMLRKLEALLAVADETASLIITGNGDVVQPENDLIAIGSGGPYAQAAARALLENTELSAREIAEKALDIAGDICIYTNHFHTIEELSYKAEFHHHHHH”, for which the “soluble on expression in E. coli” value is reported as “soluble”.

With “MSLTQMPNVHDAEPIPEAARAEIDRLLLSGDLFRYTAPQDAPVALLEREFAALLGTKYALAVSSCSAALFLSLKALDLPRDARVLIPGFTFAAVPSSVVHADCVPVLCEVGENYRIDMADFKARLDDVQAVIVSHMRGHTSDMDAILSLCAARDIPVVEDAAHSLGTLWHGEKIGTLGRVGCFSFQSYKMVNAGEGGILVTDDADLVARAVIMSGAYEHNWAKHVDGDDPALSEAFARWQNKLPLYNLRLSNLSAAVIRPQLPLLAERVRRGLENHDYVADKLNSSPVLSVPAPLVAETRAPDSIQFNLVGLSDDEVTRFAEAAAARGIKVQIFGKSADNARAFWNWQFLPGGAPELPRTRDMLMRACDVRLPVRLTRDELDLIANALLAAAAEVQGPLRVYGTEGHHHHHH”, the “soluble on expression in E. coli” value is given as “soluble”.

Turning to “PRVPSAGAAECKGEISNVQWKNDTNIKDGVFVGSYGQGADVQFDWKVDPGAKAGDQFTLKLPNELSRLGNKDLTLTAPSGEEVAKGTWDDVAKTWTFTLTDYANSHGDISGSAFFTVQWDRSVAQSNTQYPLTFSGCKGAGTLNGKTPEEGVGGTAQATSKTGLYDSKTDSARWNIYVETADTDIYTPVVVKDIGNTQLLFRCSDVKVFDRTPYPHTKIRDTPIDPNRWKCEEKDGGIIVSMVPDEHGRYLTAGQSLTIGFETPINDDTSRFITNKAIVEISPNKIENVEYSVDRGDAGGVGQGFQGKIKIQKEVVGETAPVQGNKFDFEYKCGETTQNISVAAGQTSDIFTQRSSSTCSITEKNVAEGVTVDFEVIDEETGKPAYVVPIDNGVTVKFNKNSSTTLNVKVTNTYPNKPEAKKGKFVIKKTVNGLDAGQKDKAFKFNYTCKAPDGDAYTEPQLAEVTAGRTWQSGNYPEGTICTIEEDLESAKVPGYSLISAQPKGDVTIKAEGTEGSPVEFAATNSYTKDLGSFSVQKKIEASAEAMPLLKDQEFGFKYTCGADKGEFKLKNGETKKVERIATGTKCTVEESDAKVPNGFMWTGKIEGTDLDPNDFTIVKDKTLAFTATNTYKQQYGGFTLSKNVTGDATNLEELQKRSYTFNYTCTAPTGTVLKDKVEITEETPKAIGNIPAASTCKVTEVEAPAKDTDWTVDLSVNGTWVGETAEFKVPAEGEPSISILAKNNYRQHKGSFTIEKIVDASEGIVTPKEFTFTWQCGEDKGAETVRVTNGKGRVEIDRAFPVGTKCSVKELEAEAEDARLITSWENQEFTIDKDKQHVIVSATNTYRYAESKVKIVKKLEGPAKDKAKDKTFTFDYSCVVNNEAIEGSVNITGEGATEIPESFPAGTKCTITERDASISGTTWTHRIAEDGQITIQSPAKVYQVGVTNAYSKPGFP”, the “soluble on expression in E. coli” value is “not soluble”.

On to “AIADKKAMWDRFYTENGSKGQFKNFEWFFGFPSVKDLVLPALQAMSCSHSGPLHILDMGCGTSALGPCIYSTSPCAVRVTCADISPVAVKLMEEHTKSTSTQPCNPSSALVFLELDCTQMTGHFKSRSLDLILDKGTTDALVRSKEGQVKAGQILRQSLQVLRPSGSFLQFSDEDPDARLIWLEREVQGAEVTADVGVQEIGELRGVSYFCYQISPRSRPHS”, for which the “soluble on expression in E. coli” value is “soluble”.

As for “MRIMGLDVGSKTVGVAISDPLGFTAQGLEIIKIDEEKAEFGFTRLEELVKQYQVEQFVIGLPKNMNNTNGPRVDASITYGNHIEHLFGLPVHYQDERLTTVEAERMLIEQADISRGKRKKVIDKLAAQLILQNYLNRNFLEHHHHH”, the “soluble on expression in E. coli” value is on record as “soluble”.

“MWELAEVQEPEAWNRLVSGFAITSPLQSWGWGEVKRTTGWEPRRFLLLGGEGPVAAAQVLLKAAPGGLRLAYAPRGPALHRLEDLPEVARALGRALRATHLVLEPEAGLPAHLPAPRFPGLLLEEPIQPAHSLWLDLTQGEEALLKGMKEMHRRNARLALKRVALSVEGEEAFAEFYRLFTETNRRARLLQHDEAYYRAVLKEMNQPLGEAFLALARKDGEALAAGLFVAFAGKVAYLYGGSTRKHPEAKAPMGMHLAAIRHGMARGYRVYDLWGIPKNPRGSHAEGIHRFKEGFGGQRVQFPAYVLPLSPLYRPLGLLLRLRKTWVNLRVRGNPRDVLG”: the “soluble on expression in E. coli” value is on record as “soluble”.

Consider “SPAPNQPAAKKTLDSTPAQDKPPQPNSQGKKLASVALLLVLALGAGFAYVHQQQKSEFNNQLQAVRAELKQTRDALNAQLEQTVSKATSQATEITHRAETVLEQQQKSIESLQLAVADIKGRRPNDWLLAEADYLVKLAGRKLFLEHDVETATQLMESADQRIAALNDPSLTALRKAMANDITTLKNIPLIDRDGLVLRLISLQQQIDSLPLANAILPADQPQTSQAVSENIDDWQTNLKNSLKAFADNFITFRSRDGNVIPLLSPTQHFYLRENLQAKLETAIKGVYTEQQTLYRIALDTAAQWSTSFFNPDDKAVQSFNAALAQLAEQQVQVEYPVKLQAQQQLADVINERLRRSVSPLTTGA”, for which the “soluble on expression in E. coli” value is recorded as “not soluble”.

Consider “MTEKKFIQDPWAKMTTRNGLAGDEVISALQKSIRRGKEKDACEFAYEMYITSPQFEEKLWRRLLAISVEDIGMGNPIAALMINNLNMMRKEFQYNESDRAMFFFHAIRYLCGSEKDRSSDLLKNIVIKSFAMGYVPEIPDIALDKHTTRGQEMGRGSEHFLHEASKVIPQAKVENDYKEQYEEIIKKYDPNHVVPSTFVFNPWQVLEHHHHHH”, for which the “soluble on expression in E. coli” value is recorded as “not soluble”.

Consider “GIDPFTTARKSTGGKAPRKGGMVVKKRKLATEAGGSDERPKYLPGKHPKNQEKTPHVDYNAPLNPKSELFLDDWHIPKFNRFISFTLDVLIDKYKDIFKDFIKLPSRKFHPQYYYKIQQPMSINEIKSRDYEYEDGPSNFLLDVELLTKNCQAYNEYDSLIVKNSMQVVMLIEFEVLKAKNLKRNYLINSEVKAKLLHYLNKLVDATEKKINQALLGASSPKNLDDKVKLSEPFMELVDKDELPEYYEIVHSPMALSIVKQNLEIGQYSKIYDFIIDMLLVFQNAHIFNDPSALIYKDATTLTNYFNYLIQKEFFPELQDLNERGEINLEFDKFEFENYLAIGGGGPAAAGALAISALDND”, for which the “soluble on expression in E. coli” value is “soluble”.

As for “GSASPTPPYLKWAESLHSLLDDQDGISLFRTFLKQEGCADLLDFWFACTGFRKLEPCDSNEEKRLKLARAIYRKYILDNNGIVSRQTKPATKSFIKGCIMKQLIDPAMFDQAQTEIQATMEENTYPSFLKSDIYLEYTRTGSESPKV”, the “soluble on expression in E. coli” value was “soluble”.

“MINFEATELRLGLPGGNHGGEMAGKNNGKRGFSETVDLKLNLSSTAMDSVSKVDLENMKEKVVKPPAKAQVVGWPPVRSFRKNVMSGQKPTTGDATEGNDKTSGSSGATSSASACATVAYVKVSMDGAPYLRKIDLKLYKTYQDLSNALSKMFSSFTIGNYGPQGMKDFMNESKLIDLLNGSDYVPTYEDKDGDWMLVGDVPWEMFVDSCKRIRIMKGSEAIGLAPRALEKCKNRS”: the “soluble on expression in E. coli” value is given as “soluble”.

With “MVHAFLIHTLRAPNTEDTGLCRVLYSCVFGAEKSPDDPRPHGAERDRLLRKEQILAVARQVESMCRLQQQASGRPPMDLQPQSSDEQVPLHEAPRGAFRLAAENPFQEPRTVVWLGVLSLGFALVLDAHENLLLAEGTLRLLTRLLLDHLRLLAPSTSLLLRADRIEGILTRFLPHGQLLFLNDQFVQGLEKEFSAAWPR”, the “soluble on expression in E. coli” value is “not soluble”.

As to “RGETIKGQFAVAEVILNRVQSERFPNTPCGVIRQGTGRKYQCQFTYTCDGRKEVIAEKQAYERVAKVARLAMDGAAESLTDGATYYHTTAVRPSWARRFTQTTKIGVHLFYRQGQRTASN”, the “soluble on expression in E. coli” value was “not soluble”.

With “QHGSSTDPSFVALRNNSSLSCDGKSRLLEFGNDLGFSKEETDVLAKQKNWEQNYTNFKKQFEHKLLDPKSFSLTDVYNLFSGFQQSVADTVKLMNELQTQVNKANDIYPVESFQVPKVPQKLFGFVDQGFFPKLNPKGLNIADNVASLFEKYSLKQATLKDFDIVLEKKNDIVLEHKVRYNFALQ”, the “soluble on expression in E. coli” value is “not soluble”.

For “MGETTAEAKKDPSSIRVVALDWRYEEILHALGITPVGIVEIGKSKEPQTLKGELEGVTSVGQAKQPNLEVIQSLEPDLILASPTRQAAIMDQLKEIAPTHAYGDTSYTEVLDAMDDIATKVGAEDKAKEVRTRIESKIAQAKNKVEPGTRTALIGWSKNTLYTWVKDSFAGSLLTAAGYEYGYDGEKSAIESKTDVAELTGDKLPEMKLDVMYLYNDIEGFRSSPYADVVSNIVDVEQDTWSRSRGPLAAEAMLDQIINSLEHHHHHH”, the “soluble on expression in E. coli” value is “not soluble”.

With “TVQCKVTLLDGTEYSCDLEKHAKGQVLFDKVCEHLNLLEKDYFGLLFQESPEQKNWLDPAKEIKRQLRNLPWLFTFNVK”, the “soluble on expression in E. coli” value was “not soluble”.

Turning to “MRLLPLVAAATAAFLVVACSSPTPPRGVTVVNNFDAKRYLGTWYEIARFDHRFERGLEKVTATYSLRDDGGLNVINKGYNPDRGMWQQSEGKAYFTGAPTRAALKVSFFGPFYGGYNVIALDREYRHALVCGPDRDYLWILSRTPTISDEVKQEMLAVATREGFDVSKFIWVQQPGS”, the “soluble on expression in E. coli” value is recorded as “soluble”.

For the sequence “MGSDKIHHHHHHMLIEIPNVFSKQEVNQLREQLDARTWIDGNQTSGMMASTRKRNQQLDKDDPVALQIGELIMARLLAHPLFVSAALPLQFYPPLFNRYQGGDTFGYHIDNAIRSTSDGMVRTDLSATLFLSELNAYEGGELVIQDTYGQQSIKLAAGSLVLYPSTSLHQVTPVTSGERTSAFMWLQSMVRDEGQRRLLFQLDQSIQTLTAQQAAEQELFNLTGVYHNLLRRWSEL”, the “soluble on expression in E. coli” value is “not soluble”.

Turning to “GPGSMYFTSAKDVVRLCGGGLAPEVTFAIDDYPATDSIGYNSSAVAGGGGTNVDGASMSNVTTAIQRSLRRASRTAGQPTLRPTRTEQVCGPAVLGAGEALGLAPFKYVCYTVSTTSVVAPASGSASAASKGAKGDGGATYVEFVDAFRIRTSDVHAAVIDIAAQQRAERLQHSPNLYVPWCAAAPGEVVPRGAARTVADFIVAARHRTLYSDYAATELLVRQSWLLQDAAAHTIRALMPHMVPRTYMPGEVMACPHTPGSLRQLCFLRRGRLNVFVVPKSGITPVLLMKGESPDVLVTSRFSRDGCGCWCLRETPTAQPAEVVESGASFGELSVLFHEPRHCILRADTVCDVWCLPRQNFAALMQRDAALRDGLLRKAAVLRVEWMGEQRFTRALAQQLRAGSELLKPLPDIAIRLIQERLEPVIYTPGSLVASTSTRCTEMTFIMRGTVSTIWKVLLHTAQGTCWARDA”, the “soluble on expression in E. coli” value is “not soluble”.

For the sequence “MSSTLAKIAEIEAEMARTQKNKATAHHLGLLKARLAKLRRELITPKGGGGGGPGEGFDVAKTGDARIGFVGFPSVGKSTLLSNLAGVYSEVAAYEFTTLTTVPGVIRYKGAKIQLLDLPGIIEGAKDGKGRGRQVIAVARTCNLILIVLDVLKPLGHKKIIENELEGFGIRLNSKPPNIGFKKKDKGGINLTATCPQSELDAETVKSILAEYKIHNADVTLRSDATADDLIDVVEGNRVYIPCIYVLNKIDQISIEELDIIYKVPHCVPISAHHRWNFDDLLEKIWDYLKLVRIYTKPKGQLPDYTSPVVLPYSRTTVEDFCMKIHKNLIKEFKYALVWGLSVKHNPQKVGKDHTLEDEDVIQIVKK”, the “soluble on expression in E. coli” value is “soluble”.

Values taken from the DeepSol protein solubility set.
